Results as given in patent US20090252681A1 (Ablynx, published 2009).

What was measured:
[1] = target: T1, EGFR on A431 derived membrane vesicles (human, UniProt P00533 25-1210)
T1 construct: whole, on cells; presented in membrane vesicles coated on ELISA plates, not on intact cells; also called EGFR harboring A431 vesicles; EGFR expressing A431 vesicles

purified EGFR (Sigma) = target: T2, purified EGFR (Sigma) (human, UniProt P00533 25-1210, limits assumed)
T2 construct: native receptor purified from A431 cells; also called solid phase coated EGFR

[2] = target: T3, cell surface expressed EGFR (human, UniProt P00533 25-1210)
T3 construct: whole, on cells; also called EGFR on A431 tumor cells; EGFR on HER14 cells

Recombinant human IGF-IR = target: T4, Recombinant human IGF-IR (human, UniProt P08069 31-932); test: SPR (BIAcore), immobilized IGF-IR
T4 construct: bought; also called rhIGFIR; rhIGF-IR

| koff (purified EGFR (Sigma)) [s⁻¹] | Binder | other results |
| --- | --- | --- |
|  | PMP8C7 (VHH, also called EGR PMP8C7) VHH: QVKLEESGGGLVQAGGSLRLSCAASGRAFSSYVMGWFRQAPGKEREIVGAISWRGGSTYYADSVKGRFTISRDNAKNTVYLQMNSLKPEDTAVYYCAAVYRVGAISEYSGTDYYTDEYDYWGQGTQVTVSS | binding result [1]: binds |
| 0.0015 | PMP7A5 (VHH) VHH: EVQLVESGGGLVQAGGSLRLSCAASDRTFSSNNMGWFRQAPGKEREFVAAIGWGGLETHYSDSVKGRFTISRDNAKNTVYLQMNSLKPEDTARYYCAVSSTRTVIYTLPRMYNYWGQGTQVTVSS |  |
| 0.00017 | PMP38G7 (VHH, also called EGR PMP38G7) VHH: EVQLVESGGGLVQAGGSLRLSCAASGRTFSSYVMGWFRQATGKEREFVATIAWDSGSTYYADSVKGRFTISRDNAKNTVHLQMNSLKPEDTAVYYCAASYNVYYNNYYYPISRDEYDYWGQGTQVTVSS |  |
| 0.0031 | 27-1-H7 (VHH) VHH: EVQLVESGGGLVQAGGSLRLSCAASGRGAWAWFRQAPGKEREFVGGLSWSADSTYYADSVKGRFTISRDNAKNTVFLQMTNLKADDTAVYYCAAHRRPFASVFTTTRMYDYWGPGTQVTVSS |  |
|  | PMP9C1 (VHH) VHH: EVQLVESGGGLVQAGGSLRLSCAASGRTFSGFAMGWFRQAPGKEREFVAAISWSGGSLLYVDSVKGRFTISRDNAKNTVHLQMNSLKPGDTAVYYCAAMVGPPPRSLDYGLGNHYEYDYWGQGTQVTVSS | binding result [2]: binds; binding result [1]: binds |
| 0.0015 | PMP7E12 (VHH) VHH: EVQLVESGGGLVQAGGSLRLSCTASGRTFENNAMAWFRQAAGKEREFVAGFSGSGGATYYAHSVEGRFTISRDNAKNTVDLQMNSLSLEDTAVYLCAARRKSGEVVFTIPARYDYWGQGTQVTVSS |  |
|  | PMP1C7 (VHH, anti-IGF-IR Nanobody; tag not described; also called IGR PMP1C7) VHH: QVKLEESGGGLVQAGGSLRLSCVASGRTFSRTAMAWFRQAPGKEREFVATITWNSGTTRYADSVKGRFFISKDSAKNTIYLEMNSLEPEDTAVYYCAATAAAVITPTRGYYNYWGQGTQVTVSS | koff (Recombinant human IGF-IR): 0.0019 s⁻¹ |
| 0.0017 | 27-10-E8 (VHH, anti-EGFR Nanobody; tested as periplasmic extract or IMAC purified soluble Nanobody, tag not described; also called EGR 27-10-E8) VHH: EVQLVESGGGLVQAGGSLRLSCAASGRTFSTYTMAWFRQAPGKEREFVQGISRSDGGTYDADSVKGRFTISRDNAKNTVYLQMNSLKPEDTAVYFCAAASVKLVYVNPNRYSYWGQGTQVTVSS | IC50 (read off the curve) [1]: ~900 pM |
